The source of these data is publication PMC5643494, “TRPA1–FGFR2 binding event is a regulatory oncogenic driver modulated by miRNA-142-3p” (Nature Communications, 2017).

The target in assay [1] is TRPA1-GFP truncated of 5 ankyrin repeats (Δ5-GFP). Put plainly: FRET or BRET; FLIM-FRET in fixed serum-starved HEK 293T cells co-expressing FGFR2-RFP with Δ5-GFP or Δ10-GFP; shift of GFP lifetime against empty GFP vector.
In assay [2] the target is T1, purified full-length human TRPA1 (human, UniProt O75762 1-1119, biotinylated with EDC-based carboxyl-biotinylation reagent (streptavidin pull-down); labeled with Alexafluor 488 (MST); unlabelled in the GST pull-down).
T1 construct: human TRPA1, full length; kept in PBS with 0.014% F-14; also called hTRPA1; full-length purified TRPA1; source: Pichia pastoris, purified (Ni-NTA)
T1 sequence (O75762 whole entry): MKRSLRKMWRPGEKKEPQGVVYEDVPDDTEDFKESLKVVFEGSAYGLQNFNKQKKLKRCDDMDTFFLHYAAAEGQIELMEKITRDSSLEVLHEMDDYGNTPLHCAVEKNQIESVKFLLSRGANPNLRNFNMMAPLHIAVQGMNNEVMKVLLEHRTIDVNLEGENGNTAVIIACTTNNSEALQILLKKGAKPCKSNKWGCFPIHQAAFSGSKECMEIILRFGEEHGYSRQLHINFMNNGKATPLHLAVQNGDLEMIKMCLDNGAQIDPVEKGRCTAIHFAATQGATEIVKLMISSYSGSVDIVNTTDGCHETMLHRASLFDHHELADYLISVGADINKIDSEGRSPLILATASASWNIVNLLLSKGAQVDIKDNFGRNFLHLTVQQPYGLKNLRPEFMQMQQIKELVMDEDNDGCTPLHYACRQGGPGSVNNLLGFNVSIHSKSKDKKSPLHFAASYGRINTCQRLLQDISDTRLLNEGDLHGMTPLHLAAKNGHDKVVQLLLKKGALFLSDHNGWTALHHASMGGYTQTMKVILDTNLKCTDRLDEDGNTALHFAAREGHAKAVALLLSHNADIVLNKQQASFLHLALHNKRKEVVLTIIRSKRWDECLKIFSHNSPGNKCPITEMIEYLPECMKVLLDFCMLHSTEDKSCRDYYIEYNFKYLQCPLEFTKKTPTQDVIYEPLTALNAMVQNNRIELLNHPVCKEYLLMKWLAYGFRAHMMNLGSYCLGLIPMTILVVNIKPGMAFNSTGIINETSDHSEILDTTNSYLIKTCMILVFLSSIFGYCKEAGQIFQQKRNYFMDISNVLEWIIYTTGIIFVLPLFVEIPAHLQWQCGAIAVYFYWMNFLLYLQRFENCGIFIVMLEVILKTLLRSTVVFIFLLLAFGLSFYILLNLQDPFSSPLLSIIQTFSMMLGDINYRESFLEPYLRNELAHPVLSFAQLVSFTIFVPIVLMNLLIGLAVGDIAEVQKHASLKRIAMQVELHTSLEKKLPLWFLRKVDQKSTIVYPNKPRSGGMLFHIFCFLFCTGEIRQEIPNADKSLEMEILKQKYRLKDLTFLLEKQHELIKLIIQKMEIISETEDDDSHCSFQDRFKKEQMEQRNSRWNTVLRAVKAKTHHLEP
Put plainly: pull-down; GST constructs on glutathione-sepharose beads incubated with purified full-length TRPA1; western blot. Conditions: both partners purified. For orientation: In western blotting, separated proteins are transferred to a membrane and probed.

Residue numbers refer to the chain shown, from its start. Numbers in names are those of the source.

Chain of TRPA1-GFP truncated of 5 ankyrin repeats (Δ5-GFP) (O75762 whole entry, stated change not applied, the tested form may be a part): as the sequence (O75762 whole entry) above

For “FGFR2-RFP (from UniProt P21802 22-821) (receptor)”, the shift of GFP fluorescence lifetime (FLIM-FRET) in assay [1] came to 0.09 ns.

B1: GST fusion of FGFR2 residues 764-821 with P804A (C4) (domain or fragment, UniProt P21802 764-821, looked up)
chain: TTNEEYLDLSQPLEQYSPSYPDTRSSCSSGDDSVFSPDPMAYEPCLPQYPHINGSVKT
notes: FGFR2, last 58 amino acids, residues 764-821, P804A
B1: the binding result in assay [2] is “binds”.

B2: GST fusion of the last 58 amino acids of FGFR2 (residues 764-821), wild-type construct (C) (domain or fragment, UniProt P21802 764-821, looked up)
chain: B1 chain with A41P
notes: FGFR2, last 58 amino acids, residues 764-821; PGEX vector
In the case of B2, the binding result in assay [2] is “binds”.
